Target: T1, G. violaceus transcriptional regulator, with His tag (Gloeobacter violaceus PCC 7421)
T1 construct: GvTcR, helix-turn-helix type transcriptional regulator of Gloeobacter violaceus PCC 7421, NCBI WP_011141437.1; gene amplified from genomic DNA with the printed primers (forward from the start codon, reverse adds His6 before the stop codon); also called GvTcR; HTH transcription factor protein; source: E. coli UT5600, purified (Ni-NTA); also in cell lysate; also co-expressed with GR from one pKA001 …
Experiment: ITC; MicroCal ITC200, room temperature, sonication buffer (150 mM NaCl, 50 mM Tris-HCl, pH 7.0) with 0.02% DDM; which protein was titrated is not told
Settings: both partners purified

B1: GR R69A/K141A double mutant (natural protein)
chain: MLMTVFSSAPELALLGSTFAQVDPSNLSVSDSLTYGQFNLVYNAFSFAIAAMFASALFFFSAQALVGQAYRLALLVSAIVVSIAGYHYFRIFNSWDAAYVLENGVYSLTSEKFNDAYRYVDWLLTVPLLLVETVAVLTLPAAEARPLLIKLTVASVLMIATGYPGEISDDITTRIIWGTVSTIPFAYILYVLWVELSRSLVRQPAAVQTLVRNMRWLLLLSWGVYPIAYLLPMLGVSGTSAAVGVQVGYTIADVLAKPVFGLLVFAIALVKTKADQESSEPHAAIGAAANKSGGSLIS
modifications: retinal chromophore bound by a Schiff base (residue not given)
With B1 the Kd was 6.2 ± 3.15 mM.

Source: PMC11217422, “Proton-pumping photoreceptor controls expression of ABC transporter by regulating transcription factor through light” (Communications Biology, 2024)
